Data on 94 variants can be found in the supplement of paper PMC10567573.

B1: NETO1 (parent)
chain: GFSPIIGRFCGQQNPPVIKSSGRF
B2: C10orf62 (parent)
chain: RALEEVEMKLQKNFLTQRENTIAG
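Further: lentivirally expressed fusions sorted by FACS into six bins by GFP to DsRed ratio, PSI derived from sequencing read proportions per bin multiplied by bin number.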

One series covers variants of B1. Kind of series: protein stability index of a GFP-peptide fusion (GPS, HEK-293T) (PSI 1-6); higher = more stable. Conditions: c terminus: a fixed tail appended.
As for GFSPIIGRFCGQQNPPVIKSSGCF, the protein stability index was 1.44. Consider GFSPIIGRFCGQQNPPVIKSSGNF, for which the protein stability index stood at 2.09.

Take GFSPIIGRFCGQQNPPVIKSSGVF: the protein stability index was determined as 2.22. Turning to GFSPIIGRFCGQQNPPVIKSSGSF, the protein stability index was determined as 1.94. Still for that read-out and setting: to GFSPIIGRFCGQQNPPVIKSSGYF belongs 2.6; to GFSPIIGRFCGQQNPPVIKSSGDF, 2.3; to GFSPIIGRFCGQQNPPVIKSSGKF, 2.44. Same read-out and setting: to GFSPIIGRFCGQQNPPVIKSSGGF belongs 1.67; to GFSPIIGRFCGQQNPPVIKSSGWF, 2.26. The same measure, in the same setting: to GFSPIIGRFCGQQNPPVIKSSGFF belongs 1.89; to GFSPIIGRFCGQQNPPVIKSSGIF, 1.65.

As for GFSPIIGRFCGQQNPPVIKSSGTF, the protein stability index worked out at 1.64.

In the case of GFSPIIGRFCGQQNPPVIKSSGPF, the protein stability index is 3.38. Turning to GFSPIIGRFCGQQNPPVIKSSGEF, the protein stability index is 2.04.

In the case of GFSPIIGRFCGQQNPPVIKSSGLF, the protein stability index amounted to 2.35.

For GFSPIIGRFCGQQNPPVIKSSGAF, the protein stability index worked out at 1.35. The same measure, in the same setting: then GFSPIIGRFCGQQNPPVIKSSGMF, with 1.96. Same read-out and setting: to GFSPIIGRFCGQQNPPVIKSSGQF belongs 1.56. On the same count and under the same terms, to GFSPIIGRFCGQQNPPVIKSSGHF belongs 1.76. On to GFSPIIGRFCGQQNPPVIKSSGRY, for which the protein stability index turned out to be 2.4. Regarding GFSPIIGRFCGQQNPPVIKSSGRI, the protein stability index worked out at 2.23.

Regarding GFSPIIGRFCGQQNPPVIKSSGRE, the protein stability index was 2.76. Same read-out and setting: to GFSPIIGRFCGQQNPPVIKSSGRK belongs 3.64; to GFSPIIGRFCGQQNPPVIKSSGRP, 2.51; to GFSPIIGRFCGQQNPPVIKSSGRQ, 3. The same measure, in the same setting: then GFSPIIGRFCGQQNPPVIKSSGRM, with 1.97; and GFSPIIGRFCGQQNPPVIKSSGRC, with 2.48; and GFSPIIGRFCGQQNPPVIKSSGRH, with 2.26. Still for that read-out and setting: to GFSPIIGRFCGQQNPPVIKSSGRV belongs 2.42; to GFSPIIGRFCGQQNPPVIKSSGRS, 3.88; to GFSPIIGRFCGQQNPPVIKSSGRT, 2.65.

On to GFSPIIGRFCGQQNPPVIKSSGRL, for which the protein stability index is 3.69. Same read-out and setting: then GFSPIIGRFCGQQNPPVIKSSGRR, with 2.66; and GFSPIIGRFCGQQNPPVIKSSGRW, with 1.6. On the same count and under the same terms, then GFSPIIGRFCGQQNPPVIKSSGRN, with 2.64.

Consider GFSPIIGRFCGQQNPPVIKSSGRA, for which the protein stability index was 2.42.

For GFSPIIGRFCGQQNPPVIKSSGRD, the protein stability index stood at 2.98. On the same count and under the same terms, to GFSPIIGRFCGQQNPPVIKSSGRG belongs 3.51. Same read-out and setting: to GFSPIIGRFCGQQNPPVIKSSTRF belongs 2.11; to GFSPIIGRFCGQQNPPVIKSSHRF, 1.59. For the variant GFSPIIGRFCGQQNPPVIKSSIRF, the protein stability index is 1.73. Take GFSPIIGRFCGQQNPPVIKSSLRF: the protein stability index was found to be 2.81. Take GFSPIIGRFCGQQNPPVIKSSFRF: the protein stability index amounted to 1.82. On the same count and under the same terms, then GFSPIIGRFCGQQNPPVIKSSWRF, with 2.14.

Turning to GFSPIIGRFCGQQNPPVIKSSDRF, the protein stability index stood at 2.06. Still for that read-out and setting: then GFSPIIGRFCGQQNPPVIKSSCRF, with 1.97; and GFSPIIGRFCGQQNPPVIKSSNRF, with 2.2; and GFSPIIGRFCGQQNPPVIKSSQRF, with 2.35. Same read-out and setting: then GFSPIIGRFCGQQNPPVIKSSVRF, with 1.63.

On to GFSPIIGRFCGQQNPPVIKSSERF, for which the protein stability index was 1.63. In the case of GFSPIIGRFCGQQNPPVIKSSMRF, the protein stability index came out at 1.65. The same measure, in the same setting: to GFSPIIGRFCGQQNPPVIKSSRRF belongs 2.19; to GFSPIIGRFCGQQNPPVIKSSSRF, 2. Turning to GFSPIIGRFCGQQNPPVIKSSKRF, the protein stability index came out at 2.54. As for GFSPIIGRFCGQQNPPVIKSSYRF, the protein stability index was found to be 2.1. Same read-out and setting: then GFSPIIGRFCGQQNPPVIKSSPRF, with 2.15.

Another series covers variants of B2. The description is as above. Conditions: c terminus: a fixed tail appended.
Consider RQLEEVEMKLQKNFLTQRENTIAG, for which the protein stability index came to 4.32. The same measure, in the same setting: to RCLEEVEMKLQKNFLTQRENTIAG belongs 3.27; to RFLEEVEMKLQKNFLTQRENTIAG, 2.54; to RWLEEVEMKLQKNFLTQRENTIAG, 2.29.

For the variant RLLEEVEMKLQKNFLTQRENTIAG, the protein stability index amounted to 2.61. On to RGLEEVEMKLQKNFLTQRENTIAG, for which the protein stability index is 4.1. Still for that read-out and setting: to RYLEEVEMKLQKNFLTQRENTIAG belongs 2.98. Still for that read-out and setting: to RPLEEVEMKLQKNFLTQRENTIAG belongs 4.4; to RVLEEVEMKLQKNFLTQRENTIAG, 2.96. With RELEEVEMKLQKNFLTQRENTIAG, the protein stability index was 4.41.

For the variant RHLEEVEMKLQKNFLTQRENTIAG, the protein stability index amounted to 3.55. On the same count and under the same terms, to RSLEEVEMKLQKNFLTQRENTIAG belongs 3.9; to RTLEEVEMKLQKNFLTQRENTIAG, 3.83.

Consider RNLEEVEMKLQKNFLTQRENTIAG, for which the protein stability index came out at 3.89. The same measure, in the same setting: then RDLEEVEMKLQKNFLTQRENTIAG, with 4.1; and RRLEEVEMKLQKNFLTQRENTIAG, with 3.61. The same measure, in the same setting: to RKLEEVEMKLQKNFLTQRENTIAG belongs 3.7; to RILEEVEMKLQKNFLTQRENTIAG, 2.66; to RMLEEVEMKLQKNFLTQRENTIAG, 2.6. Same read-out and setting: then KALEEVEMKLQKNFLTQRENTIAG, with 3.6; and WALEEVEMKLQKNFLTQRENTIAG, with 3.15. With YALEEVEMKLQKNFLTQRENTIAG, the protein stability index stood at 3.29. Same read-out and setting: to NALEEVEMKLQKNFLTQRENTIAG belongs 4.37. Still for that read-out and setting: to IALEEVEMKLQKNFLTQRENTIAG belongs 2.91. On the same count and under the same terms, then VALEEVEMKLQKNFLTQRENTIAG, with 3.1; and LALEEVEMKLQKNFLTQRENTIAG, with 2.54. In the case of PALEEVEMKLQKNFLTQRENTIAG, the protein stability index was found to be 4.55. As to FALEEVEMKLQKNFLTQRENTIAG, the protein stability index amounted to 3.17. On to EALEEVEMKLQKNFLTQRENTIAG, for which the protein stability index was determined as 4.39.

Regarding MALEEVEMKLQKNFLTQRENTIAG, the protein stability index was found to be 3.33. In the case of CALEEVEMKLQKNFLTQRENTIAG, the protein stability index came to 1.89. On to QALEEVEMKLQKNFLTQRENTIAG, for which the protein stability index stood at 3.5.

In the case of GALEEVEMKLQKNFLTQRENTIAG, the protein stability index came to 4.34.

Regarding TALEEVEMKLQKNFLTQRENTIAG, the protein stability index was determined as 4.32. Take HALEEVEMKLQKNFLTQRENTIAG: the protein stability index came out at 3.69. Still for that read-out and setting: then DALEEVEMKLQKNFLTQRENTIAG, with 4.49; and SALEEVEMKLQKNFLTQRENTIAG, with 3.85.

As for AALEEVEMKLQKNFLTQRENTIAG, the protein stability index came out at 3.89.
